Positions count from the first letter of the chain named. Blank lines part the entries; values can stand above or below the molecule they belong to.
Assays:
[1] = biological target: CD20 (human B lymphocyte-restricted differentiation antigen Bp35) on Raji cells (human) (UniProt P11836); assay: staining of NHL cell lines (Raji, Ramos, RL, Daudi, Su-DHL-6)
[2] = biological target: CD20 (human B lymphocyte-restricted differentiation antigen Bp35) on Raji cells (human) (UniProt P11836); assay: cell surface competitive binding on Raji cells, 4 C, 1-2 h; unlabeled rituximab against tracer 125I-labeled c2B8/rituximab
[3] = biological target: CD20 (human B lymphocyte-restricted differentiation antigen Bp35) on Raji cells (human) (UniProt P11836); assay: cell surface competitive binding on Raji cells, 4 C, 1-2 h; unlabeled rituximab against tracer 125I-labeled rituximab; column head IC50 nM
[4] = biological target: CD20 (human B lymphocyte-restricted differentiation antigen Bp35) on Raji cells (human) (UniProt P11836); assay: cell surface competitive binding on Raji cells; unlabeled murine A20 against tracer 125I-labeled murine A20
[5] = biological target: CD20 (human B lymphocyte-restricted differentiation antigen Bp35) on Raji cells (human) (UniProt P11836); assay: cell surface competitive binding on Raji cells, 4 C, 1-2 h; unlabeled murine A20 against tracer 125I-labeled murine A20
[6] = biological target: CD20 (human B lymphocyte-restricted differentiation antigen Bp35) on Raji cells (human) (UniProt P11836); assay: direct binding of radiolabeled MAb to Raji cells, Scatchard plot analysis
[7] = biological target: CD20 (human B lymphocyte-restricted differentiation antigen Bp35) on Raji cells (human) (UniProt P11836); assay: cell surface competitive binding on Raji cells, 4 C, 1-2 h; competitor tracer 125I-labeled rituximab; column head IC50 nM
[8] = biological target: T1, soluble CEA (Scripps Laboratories) (UniProt P06731 35-685, limits assumed); assay: competitive ELISA on CEA-coated wells (0.5 ug/well); competitor HRP-conjugated hMN14 IgG, 1 nM
T1 construct: Coated at 0.5 ug/well in the ELISA; also injected as soluble analyte in BIAcore
T1 sequence (looked up): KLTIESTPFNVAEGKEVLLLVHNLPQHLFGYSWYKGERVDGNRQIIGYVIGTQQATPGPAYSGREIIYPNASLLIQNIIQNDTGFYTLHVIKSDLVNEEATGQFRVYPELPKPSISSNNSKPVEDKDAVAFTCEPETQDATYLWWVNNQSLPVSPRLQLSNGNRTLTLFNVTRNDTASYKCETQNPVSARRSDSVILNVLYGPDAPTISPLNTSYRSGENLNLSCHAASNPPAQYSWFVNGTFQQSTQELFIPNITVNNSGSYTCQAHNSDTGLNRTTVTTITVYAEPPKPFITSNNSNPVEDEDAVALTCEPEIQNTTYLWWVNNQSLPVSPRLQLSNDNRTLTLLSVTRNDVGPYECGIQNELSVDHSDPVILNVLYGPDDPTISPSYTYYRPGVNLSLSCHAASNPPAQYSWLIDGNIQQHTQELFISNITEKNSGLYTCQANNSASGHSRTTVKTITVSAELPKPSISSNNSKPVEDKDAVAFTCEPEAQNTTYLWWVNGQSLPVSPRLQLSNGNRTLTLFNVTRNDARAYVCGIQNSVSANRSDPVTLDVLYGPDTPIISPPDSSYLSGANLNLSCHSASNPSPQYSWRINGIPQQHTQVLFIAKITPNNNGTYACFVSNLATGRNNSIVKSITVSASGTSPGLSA
Experimental: FIG. 15 is a graphical representation of the results of a competitive enzyme-linked immunosorbent assay (ELISA). […] The % inhibition is plotted vs. nM concentration of sample.
Microtiter plates were coated with 0.5 μg/well with soluble CEA (Scripps Laboratories).

[9] = biological target: T1, soluble CEA (Scripps Laboratories); assay: ELISA on CEA
[10] = biological target: T1, soluble CEA (Scripps Laboratories); assay: competitive ELISA; antigen not given, CEA per paragraph 119
[11] = biological target: T2, CD20 (human B lymphocyte-restricted differentiation antigen Bp35) on Raji cells (human, UniProt P11836 1-297); assay: cell surface competitive binding on Raji cells, 4 C, 1-2 h; competitor tracer 125I-labeled murine A20
T2 construct: whole, on cells; The assays name the cells (Raji, Ramos, RL, Daudi, Su-DHL-6); also called CD20 antigen; hCD20
T2 sequence (looked up): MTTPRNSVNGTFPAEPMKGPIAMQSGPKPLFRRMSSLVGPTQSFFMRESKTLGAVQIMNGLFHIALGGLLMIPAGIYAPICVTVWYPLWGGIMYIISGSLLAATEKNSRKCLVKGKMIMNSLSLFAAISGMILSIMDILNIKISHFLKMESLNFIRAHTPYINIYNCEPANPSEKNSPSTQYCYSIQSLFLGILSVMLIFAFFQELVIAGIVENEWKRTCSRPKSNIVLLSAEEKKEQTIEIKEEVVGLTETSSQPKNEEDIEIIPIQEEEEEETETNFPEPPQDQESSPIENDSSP
Experimental: (§1) Unbound Abs were removed by washing the cells in PBS. The radioactivity associated with cells was determined after washing.

[12] = biological target: T2, CD20 (human B lymphocyte-restricted …); assay: cell surface competitive binding on Raji cells, 4 C, 1-2 h; competitor tracer 125I-labeled murine 2B8
Experimental: (§2) Unbound Abs were removed by washing the cells with PBS. Radioactivity associated with the cells was determined after washing.

[13] = biological target: T2, CD20 (human B lymphocyte-restricted …); assay: cell surface competitive binding on Raji cells, 4 C, 1-2 h; competitor tracer 125I-labeled c2B8/rituximab
[14] = biological target: T2, CD20 (human B lymphocyte-restricted …); assay: cell surface competitive binding on Raji cells, 4 C, 1-2 h; competitor tracer 125I-labeled rituximab; column head IC50 nM
Experimental: as §2

[15] = biological target: T2, CD20 (human B lymphocyte-restricted …); assay: direct binding of radiolabeled MAb to Raji cells, Scatchard plot analysis
[16] = biological target: T2, CD20 (human B lymphocyte-restricted …); assay: cell surface competitive binding on Raji cells; competitor tracer 125I-labeled murine A20
Experimental: as §1

[17] = biological target: T2, CD20 (human B lymphocyte-restricted …); assay: cell surface competitive binding on Raji cells, 4 C, 1-2 h; competitor tracer 125I-labeled rituximab
Experimental: as §2

Molecule: A20, murine anti-CD20 MAb (antibody)
IC50 (read off the curve) [4]: 20 nM
IC50 (read off the curve) [5]: 4 nM

B1: BS1.5 (679 x hMN14 bispecific diabody: variant 2) (bispecific antibody)
chain 1: MEVQLVESGGDLVKPGGSLKLSCAASGFTFSIYTMSWLRQTPEKRLEWVATLSGDGDDIYYPDSVKGRFTISRDNAKNNLYLQMNSLRSADTALYYCARVRLGDWDFDVWGQGTTVSVSSGGGGSDIQLTQSPSSLSASVGDRVTITCKASQDVGTSVAWYQQKPGKAPKLLIYWTSTRHTGVPSRFSGSGSGTDFTFTISSLQPEDIATYYCQQYSLYRSFGQGTKVEIKRLEHHHHHH
chain 2: MEVQLVESGGGVVQPGRSLRLSCSASGFDFTTYWMSWVRQAPGKGLEWIGEIHPDSSTINYAPSLKDRFTISRDNAKNTLFLQMDSLRPEDTGVYFCASLYFGFPWFAYWGQGTPVTVSGGGGSDIVMSQSPSSLAVSPGEKVTMTCKSSQSLFNSRTRKNYLGWYQQKPGQSPKLLIYWASTRESGVPDRFTGSGSGTDFTLTINSVQSEDLAVYYCTQVYYLCTFGAGTKLELKRLEHHHHHH
notes: Heterodimer of the two polypeptides; pelB leaders removed; copies: 1 + 1
binding result [8]: binds

B2: BS2 (679 x hMN14 bispecific diabody: variant 3) (bispecific antibody)
chain 1: B1 chain 1
chain 2: B1 chain 2 with C225S
notes: as for B1
binding result [9]: binds

B3: BS1 (679 x hMN14 bispecific diabody: variant 1) (bispecific antibody)
chain 1: B1 chain 1 with Q4I
chain 2: B1 chain 2
notes: as for B1
binding result [9]: binds

B5: hA20-1, humanized anti-CD20 antibody (hA20VH1 + hA20Vk) (antibody, human IgG1, V domains shown)
VH: QVQLQQSGAEVKKPGSSVKVSCKASGYTFTSYNMHWVKQAPGQGLEWIGAIYPGNGDTSYNQKFKGKATLTADESTNTAYMELSSLRSEDTAFYYCARSTYYGGDWYFDVWGQGTTVTVSS
VL: DIQLTQSPSSLSASVGDRVTMTCRASSSVSYIHWFQQKPGKAPKPWIYATSNLASGVPVRFSGSGSGTDYTFTISSLQPEDIATYYCQQWTSNPPTFGGGTKLEIKR
IC50 (read off the curve) [11]: ~4 nM
IC50 (read off the curve) [12]: ~10 nM
IC50 (read off the curve) [13]: ~9 nM
IC50 [14]: 6.8 nM

Further lines, results first:

percent of cells stained [1]: > 99%
IC50 (read off the curve) [2]: 7 nM
IC50 [3]: 5 nM
Molecule: rituximab (IDEC Pharmaceuticals Corp.) (antibody)

percent of cells stained [1]: > 99%
Kd [6]: 4.2 nM
Molecule: hA20, humanized anti-CD20 antibody (variant hA20-1 or hA20-2 not specified)

IC50 [7]: 34 nM
Molecule: murine B1 anti-CD20 antibody

binding result [10]: binds
B4: hMN14 diabody (hMN14-scFv-L5) (scFv)
scFv: MEVQLVESGGGVVQPGRSLRLSCSASGFDFTTYWMSWVRQAPGKGLEWIGEIHPDSSTINYAPSLKDRFTISRDNAKNTLFLQMDSLRPEDTGVYFCASLYFGFPWFAYWGQGTPVTVSGGGGSDIQLTQSPSSLSASVGDRVTITCKASQDVGTSVAWYQQKPGKAPKLLIYWTSTRHTGVPSRFSGSGSGTDFTFTISSLQPEDIATYYCQQYSLYRSFGQGTKVEIKRLEHHHHHH
modifications: Non-covalent homodimer (diabody) of two copies of this chain.
notes: Non-covalent homodimer of the scFv; the pelB leader is removed in the mature polypeptide; One codon before the VH and two between the VK and the tag are not spelled out in the text

IC50 (read off the curve) [11]: ~4 nM
IC50 (read off the curve) [12]: ~10 nM
B6: hA20-2, humanized anti-CD20 antibody (hA20VH2 + hA20Vk) (antibody, human IgG1, V domains shown)
VH: B5 VH with T30S, K38R, I48M, K67R, L70I, Y95F
VL: B5 VL

Kd [15]: 2.9 nM
IC50 (read off the curve) [16]: ~10 nM
IC50 (read off the curve) [17]: ~9 nM
IC50 (read off the curve) [12]: ~9 nM
IC50 (read off the curve) [13]: ~6 nM
B7: cA20, chimeric anti-CD20 antibody (antibody, V domains shown)
VH: QVQLQQPGAELVKPGASVKMSCKASGYTFTSYNMHWVKQTPGRGLEWIGAIYPGNGDTSYNQKFKGKATLTADKSSSTAYMQLSSLTSEDSAVYYCARSTYYGGDWYFDVWGQGTTVTVSS
VL: DIQLTQSPAILSASPGEKVTMTCRASSSVSYIHWFQQKPGSSPKPWIYATSNLASGVPVRFSGSGSGTSYSLTISRVEAEDAATYYCQQWTSNPPTFGGGTKLEIK
notes: Murine A20 variable domains with human constant regions; expressed in Sp2/0 cells; also called chimeric A20
